Target: T1, full-length ApoE4 (human, UniProt P02649 19-317)
T1 construct: In cell lysate; P02649 is printed for the E3 allele (residues 19-317); also called ApoE4(1-299)
T1 chain: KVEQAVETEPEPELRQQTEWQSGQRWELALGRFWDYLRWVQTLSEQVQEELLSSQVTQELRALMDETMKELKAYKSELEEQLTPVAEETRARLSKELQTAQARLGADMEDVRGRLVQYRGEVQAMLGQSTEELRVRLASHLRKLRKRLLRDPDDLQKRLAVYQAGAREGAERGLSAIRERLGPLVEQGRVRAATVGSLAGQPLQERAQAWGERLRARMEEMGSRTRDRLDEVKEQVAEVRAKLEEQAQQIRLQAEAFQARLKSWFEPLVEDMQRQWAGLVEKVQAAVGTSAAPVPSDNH
Experiment: immunoprecipitation from cell lysate, western blot with 1F9
Experimental: Cell Lysates preparation: Media was aspirated. Cells were treated for desired time by adding fresh media containing regulator. Media was then removed and cells rinsed with ice-cold PBS to harvest cells under nondenaturing conditions. PBS was removed, and 0.5 ml ice-cold 1× cell lysis buffer was added to each plate (10 cm). The plates were incubated on ice for 5 minutes. Cells were scraped off the plates and transferred to microcentrifuge tubes. The cells were kept on ice, and sonicated on ice three times for 5 seconds each. The samples were then microcentrifuged for 10 minutes at 14,000×g, 4° C., and the supernatant was transferred to a new tube. When necessary, lysate was stored at −80° C.
The membrane was then incubated with primary antibody anti-ApoE4 antibody 1F9 (MBL International Corp., Cat# M067-3) in 10 ml primary antibody dilution buffer with gentle agitation overnight at 4° C. […]
Lysates of full-length ApoE3, full-length ApoE4, ApoE3(1-272), and ApoE4(1-272) lysates were detected using Western blot with 1 μg/ml 1F9 (Medical and Biological Laboratories) (Lanes 1-4; FIG. 3). […] The m15G8 immunoprecipitation were then detected using Western blot with 1 μg/ml 1F9 (Lanes 5-8; FIG. 3). […]

binding result: no binding
B1: mouse monoclonal antibody 15G8 (antibody, V domains shown)
VH: EVKLVESGGGLVKPGGSLKLSCAASGFTFSFYAMSWVRQTPEKRLEWVASLSRGGSTYYPDSVKGRFTISRDNARNTLYLQMSSLRSEDTAMFYCAREGATALYAMDYWGQGTSVTVSS
VL: DVLMTQTPLSLPVSLGDQASISCRSSQSIVHSNGNTYLQWYLQKPGQSPKLLIYKVSNRFSGVPDRFSGSGSGTDFTLKISRVEAEDLGIYYCFQGSHVPWTFGGGTKLEIK
notes: Same variable regions as 12C12 and 15E10; also called m15G8; mouse 15G8
